Our source for the EC50 values is patent US20240352134A1 (published 2024).

As usually defined, the EC50 is the midpoint of the concentration-response curve.

For experiment [1], the target named is T1, rat CCR8 (rat, UniProt D4ADE0 1-353).
T1 chain: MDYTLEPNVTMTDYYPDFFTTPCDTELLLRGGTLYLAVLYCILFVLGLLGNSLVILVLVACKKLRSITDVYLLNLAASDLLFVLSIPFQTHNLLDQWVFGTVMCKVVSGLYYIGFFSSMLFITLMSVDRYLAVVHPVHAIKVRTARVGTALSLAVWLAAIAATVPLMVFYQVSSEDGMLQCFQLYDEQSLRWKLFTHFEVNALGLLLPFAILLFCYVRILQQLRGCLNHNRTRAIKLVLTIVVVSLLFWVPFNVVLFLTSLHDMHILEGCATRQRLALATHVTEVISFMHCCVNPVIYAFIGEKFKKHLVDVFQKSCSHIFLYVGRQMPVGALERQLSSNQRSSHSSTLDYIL
In words: FACS binding, rat CCR8-293T cells. (In general: In flow cytometry, cells or beads pass a laser one at a time.)

Experiment [2] concerns the target Dog CCR8 (dog). The experiment in a line: FACS binding, dog CCR8-293T cells.
Experiment [3] concerns the target T2, cynomolgus CCR8 (cynomolgus, UniProt G7NYJ2 1-355).
T2 chain: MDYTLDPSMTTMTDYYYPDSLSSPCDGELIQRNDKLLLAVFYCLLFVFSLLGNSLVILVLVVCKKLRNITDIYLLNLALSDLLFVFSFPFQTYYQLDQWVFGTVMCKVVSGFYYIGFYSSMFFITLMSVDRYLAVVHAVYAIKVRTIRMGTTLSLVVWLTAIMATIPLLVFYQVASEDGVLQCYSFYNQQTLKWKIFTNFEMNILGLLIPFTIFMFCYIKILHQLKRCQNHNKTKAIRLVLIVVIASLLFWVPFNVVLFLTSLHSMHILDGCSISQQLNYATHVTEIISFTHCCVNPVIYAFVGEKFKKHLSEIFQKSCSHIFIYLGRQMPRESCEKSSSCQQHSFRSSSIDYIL
The experiment in a line: FACS binding, cyno CCR8-293T cells.

Experiment [4] addresses T3, mouse CCR8 (mouse, UniProt P56484 1-353).
T3 chain: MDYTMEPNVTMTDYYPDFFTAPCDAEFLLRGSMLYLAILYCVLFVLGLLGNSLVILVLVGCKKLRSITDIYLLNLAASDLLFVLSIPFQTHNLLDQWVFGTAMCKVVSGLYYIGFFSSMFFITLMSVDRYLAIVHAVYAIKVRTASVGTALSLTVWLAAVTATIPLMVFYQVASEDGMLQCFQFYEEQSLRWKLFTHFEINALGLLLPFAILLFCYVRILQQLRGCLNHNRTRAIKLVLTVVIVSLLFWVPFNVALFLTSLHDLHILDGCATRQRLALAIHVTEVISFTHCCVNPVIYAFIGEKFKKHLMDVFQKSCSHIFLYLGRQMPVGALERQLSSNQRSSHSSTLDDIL
The experiment in a line: FACS binding, mouse CCR8-CHOK1 cells.

B1: 3F11hz4 (antibody, V domains shown)
VH: EVQLVESGGGLVQPGGSLKLSCAASGFSFNTYAMNWVRQASGKGLEWVGRIRSKSNYYATYYAASVKGRFTISRDDSKSTLYLQMNSLKTEDTAVYYCVRGRELGDYYAMDYWGQGTLVTVSS
VL: DIVMTQSPLSLPVTPGEPASISCRSSKSLLHSNGNTYLYWFLQKPGQSPQLLIYRMSNLASGVPDRFSGSGSGTDFTLKISRVEAEDVGVYYCMQHLEYPFTFGQGTKLEIK
Regarding B1, the half-maximal effective concentration (EC50) is 3.2 nM in experiment [1], 2 nM in experiment [2], 23.1 nM in experiment [3] and 0.79 nM in experiment [4].
